From IntAct's records for PubMed 18494562

B1: Raf homolog serine/threonine-protein kinase Raf (Drosophila melanogaster (Fruit fly)), P11346 (parent)
chain: MSSESSTEGDSDLYDPLAEELHNVQLVKHVTRENIDALNAKFANLQEPPAMYLIEYQELTSKLHELEAKEQELMERLNSQDQQEDSSLVERFKEQPHYQNQTQILQQQRQLARVHHGNDLTDSLGSQPGSQCGTLTRQPKILLRAHLPNQQRTSVEVISGVRLCDALMKALKLRQLTPDMCEVSTTHSGRHIIPWHTDIGTLHVEEIFVRLLDKFPIRTHIKHQIIRKTFFSLVFCEGCRRLLFTGFYCSQCNFRFHQRCANRVPMLCQPFPMDSYYQLLLAENPDNGVGFPGRGTAVRFNMSSRSRSRRCSSSGSSSSSKPPSSSSGNHRQGRPPRISQDDRSNSAPNVCINNIRSVTSEVQRSLIMQARPPLPHPCTDHSNSTQASPTSTLKHNRPRARSADESNKNLLLRDAKSSEENWNILAEEILIGPRIGSGSFGTVYRAHWHGPVAVKTLNVKTPSPAQLQAFKNEVAMLKKTRHCNILLFMGCVSKPSLAIVTQWCEGSSLYKHVHVSETKFKLNTLIDIGRQVAQGMDYLHAKNIIHRDLKSNNIFLHEDLSVKIGDFGLATAKTRWSGEKQANQPTGSILWMAPEVIRMQELNPYSFQSDVYAFGIVMYELLAECLPYGHISNKDQILFMVGRGLLRPDMSQVRSDAPQALKRLAEDCIKYTPKDRPLFRPLLNMLENMLRTLPKIHRSASEPNLTQSQLQNDEFLYLPSPKTPVNFNNFQFFGSAGNI
B2: Raf homolog serine/threonine-protein kinase Raf (Drosophila melanogaster (Fruit fly)), P11346 (parent)
chain: B1 chain
partner: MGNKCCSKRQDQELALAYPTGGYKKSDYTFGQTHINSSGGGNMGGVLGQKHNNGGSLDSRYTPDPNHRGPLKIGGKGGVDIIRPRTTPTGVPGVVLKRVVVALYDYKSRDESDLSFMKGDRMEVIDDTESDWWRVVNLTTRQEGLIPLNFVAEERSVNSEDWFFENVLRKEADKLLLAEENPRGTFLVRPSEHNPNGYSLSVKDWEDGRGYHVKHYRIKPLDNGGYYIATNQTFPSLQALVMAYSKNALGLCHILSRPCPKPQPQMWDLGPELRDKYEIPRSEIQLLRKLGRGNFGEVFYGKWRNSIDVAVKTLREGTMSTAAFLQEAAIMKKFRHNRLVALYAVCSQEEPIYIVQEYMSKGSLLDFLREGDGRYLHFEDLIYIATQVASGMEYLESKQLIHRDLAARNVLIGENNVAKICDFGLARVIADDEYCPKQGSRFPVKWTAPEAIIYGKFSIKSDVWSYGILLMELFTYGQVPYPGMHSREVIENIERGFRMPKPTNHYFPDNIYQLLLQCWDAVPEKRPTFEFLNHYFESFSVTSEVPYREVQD

Variants of: B1
Conditions: with dsor1_drome Dsor1, Q24324
Sequence of dsor1_drome Dsor1, Q24324 (Q24324 whole entry): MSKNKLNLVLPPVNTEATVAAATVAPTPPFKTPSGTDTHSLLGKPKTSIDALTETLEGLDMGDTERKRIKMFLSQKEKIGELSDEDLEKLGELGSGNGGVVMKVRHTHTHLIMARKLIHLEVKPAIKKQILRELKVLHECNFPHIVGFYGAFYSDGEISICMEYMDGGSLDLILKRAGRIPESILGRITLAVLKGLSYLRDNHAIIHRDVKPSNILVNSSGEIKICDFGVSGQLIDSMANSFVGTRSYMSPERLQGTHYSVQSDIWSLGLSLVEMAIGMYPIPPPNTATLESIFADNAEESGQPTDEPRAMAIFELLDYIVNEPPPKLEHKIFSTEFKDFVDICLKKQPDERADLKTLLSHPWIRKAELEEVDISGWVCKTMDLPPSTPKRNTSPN
Y510E was tested, and the “effect of a mutation on the interaction” value was “increasing interaction”.

Variants of: B2
Conditions: with src64_drome Src64B
With Y510F the “effect of a mutation on the interaction” value was “disrupting interaction”.
